Source: patent publication US8999894 (ALBERT EINSTEIN COLLEGE OF MEDICINE OF YESHIVA UNIVERSITY, dated 2015)

Tests used:
[1] = molecular target: T1, recombinant E. coli DNA gyrase (E. coli, UniProt P0AES4 2-875; P0AES6 2-804); test: cell-based or functional assay
[2] = molecular target: T1, recombinant E. coli DNA gyrase; test: SPR (BIAcore 3000), MfpA amine-coupled to CM5 chip, E. coli DNA gyrase as analyte, 1:1 Langmuir fit

T1 sequence (P0AES4 2-875 limits assumed, one chain of several): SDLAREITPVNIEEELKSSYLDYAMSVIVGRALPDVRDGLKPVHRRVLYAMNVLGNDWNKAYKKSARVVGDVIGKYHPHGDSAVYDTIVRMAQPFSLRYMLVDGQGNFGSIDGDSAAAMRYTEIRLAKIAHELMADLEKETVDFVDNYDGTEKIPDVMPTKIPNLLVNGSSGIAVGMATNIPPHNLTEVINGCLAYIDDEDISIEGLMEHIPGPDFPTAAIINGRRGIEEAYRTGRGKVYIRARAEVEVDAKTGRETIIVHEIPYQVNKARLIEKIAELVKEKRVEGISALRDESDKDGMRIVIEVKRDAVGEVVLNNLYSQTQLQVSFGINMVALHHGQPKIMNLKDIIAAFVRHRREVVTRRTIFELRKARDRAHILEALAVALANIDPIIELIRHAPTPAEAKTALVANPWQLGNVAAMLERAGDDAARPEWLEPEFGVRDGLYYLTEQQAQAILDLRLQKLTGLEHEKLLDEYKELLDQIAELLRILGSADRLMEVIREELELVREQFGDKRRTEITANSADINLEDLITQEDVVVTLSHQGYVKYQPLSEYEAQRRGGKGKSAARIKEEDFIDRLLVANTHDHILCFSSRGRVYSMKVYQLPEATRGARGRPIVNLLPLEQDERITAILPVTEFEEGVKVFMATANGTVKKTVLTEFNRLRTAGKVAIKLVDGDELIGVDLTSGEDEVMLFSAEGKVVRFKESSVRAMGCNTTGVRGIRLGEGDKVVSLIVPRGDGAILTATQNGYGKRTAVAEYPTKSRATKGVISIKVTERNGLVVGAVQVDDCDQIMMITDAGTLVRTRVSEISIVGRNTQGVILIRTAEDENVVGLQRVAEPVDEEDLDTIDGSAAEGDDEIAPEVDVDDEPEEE

B1: Mycobacterium tuberculosis MfpA pentapeptide repeat protein (Rv3361c gene product) (other)
chain: QQWVDCEFTGRDFRDEDLSRLHTERAMFSECDFSGVNLAESQHRGSAFRNCTFERTTLWHSTFAQCSMLGSVFVACRLRPLTLDDVDFTLAVLGGNDLRGLNLTGCRLRETSLVDTDLRKCVLRGADLSGARTTGARLDDADLRGATVDPVLWRTASLVGARVDVDQAVAFAAAHGLCLA
notes: also called MtMfpA
inhibition of ATP-dependent DNA supercoiling by E. coli DNA gyrase, apparent IC50 [1]: ~1200 nM
inhibition of ATP-independent relaxation by E. coli DNA gyrase, apparent IC50 [1]: ~1200 nM
Kd [2]: 460 nM
koff [2]: ~0.0001 s⁻¹
